These are literature values, as cited in patent US20250186538A1, “BIVALIRUDIN COMPOUNDS” (The General Hospital Corporation, priority 2022, published 2025).

The conditions of the data set: in vivo.

Take “D-Phe-Pro-Arg-Pro-Gly-Gly-Gly-Gly-Asn-Gly-Asp-Phe-Glu-Glu-Ile-Pro-Glu-Glu-Tyr-Leu [bival]”: the Half-life result is “about 20 min”.
